We go through one substance from patent publication US8728478.

Where “and” joins values, the source holds several entries; their conditions need not be identical. Equal values may be shown once.

Test [1] concerns the target Escherichia coli heat-stable enterotoxin A (STa), purified from a bovine ETEC K99+ isolate (Escherichia coli (ETEC isolated from a diarrheic neonatal calf)).
The target is the same in test [2]. Kind of test: STa-binding indirect ELISA, end titer.
The target is the same in test [3]. Kind of test: avidity ELISA on plate-bound STa, 5 M ammonium thiocyanate, Baseline. (In general: ELISA stands for enzyme-linked immunosorbent assay.)
For test [4] the target is unchanged. Kind of test: indirect ELISA on plate-bound STa, serum dilution 10^-3, pre-immunization serum.
Test [5] has the same target. Kind of test: indirect ELISA on plate-bound STa, serum dilution 10^-4, pre-immunization serum.
Test [6] has the same target. Kind of test: indirect ELISA on plate-bound STa, serum dilution 10^-5, pre-immunization serum.
Test [7] shares this target. Kind of test: indirect ELISA on plate-bound STa, serum dilution 10^-6, pre-immunization serum.

For the substance “baseline (pre-immunization) rabbit serum (antibody)”, the Avidity Index (%) in test [1] was 4.7% and 3% and 0%. Besides, the ELISA Titer (reciprocal serum dilution) in test [2] is 0. For the same substance, the OD at 405 nm with 5 M ammonium thiocyanate in test [3] is 0.017 OD and 0.043 OD and 0.04 OD. The mean OD (405 nm) in test [4] worked out at 0.864 OD; in test [5], 0.232 OD; in test [6], 0.033 OD; in test [7] it was 0.039 OD.
